Test results: publication PMC9171410 (EMBO Reports, 2022)

Experiments:
Gid10^65–284 = molecular target: T1, Gid10^65–284 (S. cerevisiae, UniProt P53242 65-284); assay: crystal structure
T1 sequence: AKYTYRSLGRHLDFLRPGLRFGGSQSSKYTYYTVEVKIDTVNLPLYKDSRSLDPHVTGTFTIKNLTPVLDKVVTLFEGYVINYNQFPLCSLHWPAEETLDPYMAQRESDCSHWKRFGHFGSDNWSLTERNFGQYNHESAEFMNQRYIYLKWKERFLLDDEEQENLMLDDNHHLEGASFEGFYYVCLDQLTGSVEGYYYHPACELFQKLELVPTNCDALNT

Gid10^57–292 = molecular target: T2, Gid10^57–292 (S. cerevisiae, UniProt P53242 57-292); assay: ITC
T2 sequence: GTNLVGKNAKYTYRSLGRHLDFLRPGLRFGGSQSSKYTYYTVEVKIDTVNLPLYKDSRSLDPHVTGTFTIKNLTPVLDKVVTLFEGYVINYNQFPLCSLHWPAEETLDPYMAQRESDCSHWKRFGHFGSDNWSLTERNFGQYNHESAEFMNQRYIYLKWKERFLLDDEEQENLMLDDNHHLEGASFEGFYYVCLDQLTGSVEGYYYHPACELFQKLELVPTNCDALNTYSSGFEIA

Q: Does PFITSRPW [Art2 degron peptide PFITSRPW] bind (Gid10^65–284)?
A: Result: binds

Q: PFITSRPVAW [Art2 degron peptide PFITSRPVAW] was tested. Which Kd (Gid10^57–292) did it give?
A: Its Kd is 1030 nM.
